Test results from patent US10202593B2, “Evolved sortases and uses thereof” (President and Fellows of Harvard College, priority 2013, dated 2019).
Where two headings read alike, the source gives them in different places.

T1: LPESG (Abz-LPESGK(Dnp)-CONH2) (Staphylococcus aureus, UniProt Q2FV99, D160N/D165A/K190E/K196T/P94R)
T1 construct: All expressed sortases lack the N-terminal 59 amino acids; inferred from Ni-NTA purification; made in house; host or cells: E. coli BL21 (DE3), pET29
T1 sequence (Q2FV99 60-206 P94R/D160N/D165A/G167E/K190E/K196T): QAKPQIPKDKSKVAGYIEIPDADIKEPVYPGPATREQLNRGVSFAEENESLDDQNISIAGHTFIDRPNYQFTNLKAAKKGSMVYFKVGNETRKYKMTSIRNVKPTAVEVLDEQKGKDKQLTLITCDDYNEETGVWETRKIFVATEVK

T2: LAETG (Abz-LAETGK(Dnp)-CONH2) (Staphylococcus aureus, UniProt Q2FV99, D160N/D165A/K190E/K196T/P94R)
T2 construct: All expressed sortases lack the N-terminal 59 amino acids; inferred from Ni-NTA purification; made in house; host or cells: E. coli BL21 (DE3), pET29
T2 sequence (Q2FV99 60-206 P94R/D160N/D165A/G167E/K190E/K196T): T1 sequence (Q2FV99 60-206 P94R/D160N/D165A/G167E/K190E/K196T)

T3: LPETG (Abz-LPETGK(Dnp)-CONH2) (Staphylococcus aureus, UniProt Q2FV99, D160N/D165A/K190E/K196T/P94R)
T3 construct: All expressed sortases lack the N-terminal 59 amino acids; inferred from Ni-NTA purification; made in house; host or cells: E. coli BL21 (DE3), pET29
T3 sequence (Q2FV99 60-206 P94R/D160N/D165A/G167E/K190E/K196T): T1 sequence (Q2FV99 60-206 P94R/D160N/D165A/G167E/K190E/K196T)

T4: LRETG (Staphylococcus aureus, UniProt Q2FV99, A104H/D160K/D165A/E105D/I182V/K138P/K152I/K162H/K173E/K190E/K196S/P94R/S102C/T164N)
T4 construct: All expressed sortases lack the N-terminal 59 amino acids; inferred from Ni-NTA purification; made in house; host or cells: E. coli BL21 (DE3), pET29
T4 sequence (Q2FV99 60-206 P94R/S102C/A104H/E105D/K138P/K152I/D160K/K162H/T164N/D165A/G167E/K173E/I182V/K190E/K196S): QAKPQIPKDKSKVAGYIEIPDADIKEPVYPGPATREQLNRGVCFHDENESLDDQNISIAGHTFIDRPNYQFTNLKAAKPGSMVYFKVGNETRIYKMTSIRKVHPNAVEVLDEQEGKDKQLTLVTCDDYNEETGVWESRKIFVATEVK

B1: eSrtA (protein)
chain: T1 sequence (Q2FV99 60-206 P94R/D160N/D165A/G167E/K190E/K196T)
B2: eSrtA(2A-9): P94R, S102C, A104H, E105D, K138P, K152I, N160K, K162H, T164N, D165A, K173E, I182V, K190E, T196S (protein)
chain: T4 sequence (Q2FV99 60-206 P94R/S102C/A104H/E105D/K138P/K152I/D160K/K162H/T164N/D165A/G167E/K173E/I182V/K190E/K196S)

Assays:
[1] = tested on: LPETG (Abz-LPETGK(Dnp)-CONH2); details: cited from earlier work
[2] = biological target: T1, LPESG (Abz-LPESGK(Dnp)-CONH2); experiment: In vitro sortase kinetics HPLC assay, LPESG substrate; format: biochemical; details: ratio of kcat/KM
Procedure, shortened: (§1)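 Abz-LXEXGK(Dnp) peptides in 300 mM Tris pH 7.5, 150 mM NaCl, 5 mM CaCl2, 5% DMSO, GGG; 22.5° C., acid-quenched, converted fraction by reverse-phase HPLC peak areas. kcat and Km from eight substrate concentrations fit to Michaelis-Menten; KH at 1 mM substrate over eight GGG levels.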

[3] = biological target: T2, LAETG (Abz-LAETGK(Dnp)-CONH2); experiment: In vitro sortase kinetics HPLC assay, LAETG substrate; format: biochemical; details: candidate LAETG target
Procedure, shortened: as §1

[4] = biological target: T3, LPETG (Abz-LPETGK(Dnp)-CONH2); experiment: In vitro sortase kinetics HPLC assay, LPETG substrate; format: biochemical; details: cognate LPETG substrate
Procedure, shortened: as §1

LRETG = biological target: T4, LRETG; experiment: In vitro sortase kinetics HPLC assay, LRETG substrate; format: biochemical
Experimental: See below for details on sortase expression and purification, and on the synthesis of Abz-LPETGK(Dnp)-CONH2 (SEQ ID NO: 19). […] Reactions were initiated with the addition of enzyme and incubated at 22.5° C. for 3 to 20 minutes before quenching with 0.5 volumes of 1 M HCl. Five to ten nmol of peptide from the quenched reactions were injected onto an analytical reverse-phase Eclipse XDB-C18 HPLC column (4.6×150 mm, 5 μm, Agilent Technologies) and chromatographed using a gradient of 10 to 65% acetonitrile with 0.1% TFA in 0.1% aqueous TFA over 13 minutes. Retention times under these conditions for the Abz-LPETGK(Dnp)-CONH2 (SEQ ID NO: 19) substrate, the released GKDnp peptide, and the Abz-LPETGGG-COOH (SEQ ID NO: 20) product were 12.8, 10.4, and 9.1 min, respectively. To calculate the percent conversion, the ratio of the integrated areas of the Abz-LPETGGG-COOH (SEQ ID NO: 20) and Abz-LPETGK(Dnp)-CONH2 (SEQ ID NO: 19) peptide Abs220 peaks was compared to a standard curve generated by mixing the product and starting peptide in known ratios. To determine […] and Km, reaction rates were fit to the Michaelis-Menten equation using OriginPro 7.0 software. All kinetics values reported represent the average of at least three measurements. Percent conversion was also calculated by using the ratio of the integrated areas of the GK(Dnp)-CONH2 and Abz-LPETGK(Dnp)-CONH2 peptide Abs355 peaks were compared directly (Example 5). To determine kcat and Km, LPETG, reaction rates were fit to the Michaelis-Menten equation using Microsoft Excel using the Solver add-in. To determine Km,GGG and KH, reaction rates were fit to the modified Michaelis-Menten, for which KH is as defined when KH<<Km,GGG.
Assays to determine eSrtA, eSrtA(2A-9) and eSrtA(4S-9) specificity were performed by preparing 10 μM stocks of Abz-LXEXGK(Dnp) (SEQ ID NO: 75) peptides in 300 mM Tris pH 7.5, 150 mM NaCl, 5 mM CaCl2, 5% v/v DMSO, and 100 mM Gly-Gly-Gly-COOH (GGG). Reactions were performed by adding eSrtA(2A-9) to a final concentration of 450 nM, eSrtA(4S-9) to a final concentration of 115 nM or eSrtA to a final concentration of 47.5 nM and a final volume of 100 μL, then incubating at 22.5° C. for 15 minutes. Reactions were quenched by the addition of 0.2 volumes of 5 M HCl, then were injected onto an analytical reverse-phase Eclipse XDB-C18 HPLC column (4.6×150 mm, 5 μm, Agilent Technologies) and chromatographed using a gradient of 10 to 65% acetonitrile with 0.1% TFA in 0.1% aqueous TFA over 13 minutes. […]

| Molecule | higher catalytic activity relative to wild-type SrtA [1] | preference for LPETG over LPESG [2] | Km [3] | Km [4] | KH (LRETG; 1 mM LRETG) | Km (LRETG; 1 mM LRETG, read-out: Km,GGG) | Kcat (Hz) (LRETG; Sub LRETG, 100 mM GGG) | Km (LRETG; Sub LRETG, 100 mM GGG, read-out: Km) |
| --- | --- | --- | --- | --- | --- | --- | --- | --- |
| B1 | approximately 140 fold | 5 fold | 6100 µM | 200 µM | – | – | – | – |
| B2 | – | – | – | – | 47.5 ± 1.3 µM | 628 ± 11 µM | 0.25 ± 0.02 Hz | 1070 ± 63 µM |
